In this assay the target is MERS-CoV S-protein (on 293FT effector cells) (MERS-CoV, UniProt K9N5Q8). Kind of assay: cell-based or functional assay.

B1: Peptide 1 (WT) (peptide)
peptide: SLTQINTTLLDLTYEMLSLQQVVKALNESYIDLKEL
With B1, the “EC50 (µM), cell-cell fusion assay” value was 1.05 µM.
